Measurements from PMC7321340, “Sorbitol as a Polar Pharmacological Modifier to Enhance the Hydrophilicity of ^99mTc-Tricarbonyl-Based Radiopharmaceuticals” (Molecules, 2020).
Read-outs that look alike come from different tables or passages of the source.

Legend:
[1] = tested on: GRPR expressing PC-3 cells; test: Cell binding and internalization studies; format: cell-based, human
Method: Receptor binding and cell internalization properties of the ^99mTc(CO)3-labeled BBN derivatives were investigated with GRPR expressing PC-3 cells (n = 2–3 in triplicate). Despite the slightly slower uptake kinetics of [^99mTc][Tc(CO)3(12)], both radiolabeled compounds [^99mTc][Tc(CO)3(L)] […] The membrane bound fraction was less than 5% AD/10^6 cells for both compounds. The receptor-specific cell uptake was verified by incubating the cells with the radiopeptides in the presence of 1000-fold excess of natural bombesin as blocking agent.
Cell culture reagents were purchased from Thermo Fisher Scientific (Vienna, Austria) or Sigma-Aldrich (Vienna, Austria). […]
Internalization studies were performed as previously published. […] Non-specific receptor binding was determined by incubating the cells with the radiotracers and 1000-fold excess of natural bombesin (250 pmol; 100 μL per well) as the receptor blocking agent. […] The receptor-bound radioactivity was obtained by incubating the cells twice for 5 min with an ice-cold acidic glycine solution (100 mM NaCl, 50 mM glycine, pH 2.8; 1 mL) on ice followed by removal of the supernatant. […] All fractions were measured in a γ-counter and calculated as percentage of the applied dose (n = 2–3 in triplicate).

[2] = target: T1, Gastrin-releasing peptide receptor (GRPR) on PC-3 cells (Homo sapiens, UniProt P30550); test: Receptor saturation assay; format: binding; settings: 4 °C, 2 h, nonlinear regression, mean ± SEM, n = 2–3 in triplicate
T1 construct: using GRPR expressing PC-3 cells; host or cells: PC-3 human prostate adenocarcinoma cells (intact, in 6-well plates, 4 °C)
Method: The receptor affinity (Kd) and maximum receptor occupancy (Bmax) were determined by receptor saturation assays using increasing amounts of the radiolabeled peptides (Figure 3). […] Differences in specific molar activities (MBq/mol) could account for this observation and cannot be entirely excluded even though both ^99mTc-radiopeptides were prepared under identical conditions. Because this study aims at the investigation of differences in the pharmacokinetics of the radiopeptides (e.g., rate and route of excretion) rather than in tumor uptake, we continued with the evaluation of both compounds in vivo.
Cell culture reagents were purchased from Thermo Fisher Scientific (Vienna, Austria) or Sigma-Aldrich (Vienna, Austria). Human prostate adenocarcinoma cells (PC-3) were purchased from ATCC and cultivated in RPMI-1640 medium supplemented with 10% heat-inactivated fetal bovine serum (FBS), 2 mM L-glutamine, 100 units/mL penicillin and 100 μg/mL streptomycin under humidified atmosphere (37 °C, 5% CO2) until minimum 80% at confluence. […]
Receptor binding assays were performed as previously published. […] Non-specific receptor binding was determined using an excess of natural bombesin (2.5 μM/well for concentrations of the radiopeptide <10 nM, and 10 μM/well for higher concentrations). […] The obtained fractions were measured in a γ-counter.

physchem = format: physicochemical; settings: pH 7.4
Method: For logD analysis, the octanol/PBS partition coefficients of the ^99mTc-tricarbonyl labeled BBN conjugates were determined at pH 7.4 utilizing the “shake-flask method” [25, 26]. The logD value for the reference compound [^99mTc][Tc(CO)3(BBN-13)] was −0.54 ± 0.04 while for the glycated compound [^99mTc][Tc(CO)3(12)] it was −1.26 ± 0.16 (Table 2). As expected, these measurements confirmed the increased hydrophilicity of the glycated ^99mTc-labeled BBN conjugate due to the introduction of the sorbitol moiety.
The lipophilicities (LogD) of [^99mTc][Tc(CO)3(L)] (L = 12, 13) were determined by their partition coefficient between n-octanol and PBS (pH 7.4) utilizing the “shake-flask method” [25, 26]. PBS and n-octanol were shaken overnight to saturate each phase. After separation of the layers by gravity, equal volumes (500 µL) of each layer were taken and transferred into an Eppendorf tube and 5 µL (~45 kBq) of the radiolabeled peptide solution were added to the PBS/n-octanol mixture. […] Aliquots of 300 µL were removed from the octanol and PBS phases and the radioactivity was measured in the γ-counter (n = 3 in triplicates). The lipophilicity was calculated as the log value of the average ratio between the radioactivity in the organic fraction (octanol) and the PBS fraction from the samples.

[3] = Biodistribution in nude mice bearing PC-3 tumor xenografts; settings: female, athymic nude (Fox-1^nu), mouse, in vivo, iv, 10 pmol, total radioactivity
Method: Biodistribution studies were performed in nude mice bearing PC-3 tumor xenografts at 1 h post-injection (p.i.) of the radiotracers (n = 6; Table 3, Figure 4).
All animals were treated according to the European Union rules on animal care. Animal experiments were approved by the Austrian Ministry of Sciences (BMBWF-66.009/0122-V/3b/2019). Approximately 5 × 10^6 PC-3 cells in 100 µL serum-free medium were subcutaneously injected into flanks of 8-week-old, female, athymic mice (Fox-1^nu, Charles River Laboratories). Xenografts were allowed to grow for 16 days (approx. size: 250 mm^3) and mice were intravenously injected via the tail vein with 0.1 µM radiolabeled peptide (10 pmol, ~42 kBq, 100 µL physiological saline) alone (baseline experiments) or co-injected with 2000-fold excess BBN(1–14) (20 nmol; blocking experiments). One hour p.i. of the radiotracers, mice were sacrificed and organs, tumor and blood were removed. Radioactivity in organs and tissues was quantified using a γ-counter (2480 Wizard^2, PerkinElmer). Organs and tissues were wet-weighted and percentage of injected dose per gram was calculated (% ID/g). Statistical analysis (2-way ANOVA) was performed by GraphPad Prism.

T1 sequence (P30550 whole entry): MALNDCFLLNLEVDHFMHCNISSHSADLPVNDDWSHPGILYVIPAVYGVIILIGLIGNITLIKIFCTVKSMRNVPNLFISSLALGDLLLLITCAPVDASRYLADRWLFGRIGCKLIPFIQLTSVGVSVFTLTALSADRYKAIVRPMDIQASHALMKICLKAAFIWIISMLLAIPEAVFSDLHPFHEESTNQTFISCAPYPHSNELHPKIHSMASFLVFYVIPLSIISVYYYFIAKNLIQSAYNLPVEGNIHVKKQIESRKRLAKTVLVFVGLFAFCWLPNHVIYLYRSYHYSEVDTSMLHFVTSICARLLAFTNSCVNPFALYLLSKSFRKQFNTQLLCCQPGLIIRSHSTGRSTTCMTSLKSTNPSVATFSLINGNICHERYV

Question: For `CCCC[C@H](NC(=O)[C@H](CC(C)C)NC(=O)[C@H](Cc1c[nH]cn1)NC(=O)CNC(=O)[C@@H](NC(=O)[C@H](C)NC(=O)[C@H](Cc1c[nH]c2ccccc12)NC(=O)[C@H](CCC(N)=O)NC(=O)CCNC(=O)CCNC(=O)CCNC(=O)Cn1cc(CN[C@@H](CCCCNC(=O)CCCOC[C@H](O)[C@@H](O)[C@H](O)[C@H](O)CO)C(=O)O)nn1)C(C)C)C(N)=O` [[^99mTc][Tc(CO)3(12)], metal not drawn], which “cellular binding and uptake in the presence of blocking agent” value ([1]; 1000-fold excess of natural bombesin) is on record?
Answer: Its value is less than 0.5 % AD/10^6 cells.

Question: And the membrane bound fraction ([1]; acidic glycine wash fraction, n = 2–3 in triplicate)?
Answer: Its membrane bound fraction is “less than 5 % AD/10^6 cells”.

Question: What about the Kd ([2]; 1–100 nM radiopeptide) of the same molecule?
Answer: Its Kd is 21.3 ± 4.6 nM.

Question: What about the Bmax ([2]; maximum receptor occupancy) of the same molecule?
Answer: The Bmax was 0.91 ± 0.06 nM.

Question: And the increase of hydrophilicity (logD) vs non-glycated reference?
Answer: Its increase of hydrophilicity (logD) vs non-glycated reference is 0.7 log units.

Question: What about the logD (physchem) of the same molecule?
Answer: Its logD is -1.26 ± 0.16.

Question: What about the tissue uptake at 1 h ([3]; 1 h p.i., i.v. 10 pmol, PC-3 xenograft, GRPR-positive, mean ± SD, n = 5–6, read-out: Tumor uptake) of the same molecule?
Answer: Its tissue uptake at 1 h is 2.72 ± 0.88 %ID/g.

Question: And the tissue uptake at 1 h ([3]; 1 h p.i., i.v. 10 pmol, mean ± SD, n = 5–6, read-out: Blood uptake)?
Answer: Its tissue uptake at 1 h is 1.22 ± 0.4 %ID/g.

Question: And the tissue uptake at 1 h ([3]; 1 h p.i., i.v. 10 pmol, mean ± SD, n = 5–6, read-out: Bone uptake)?
Answer: The tissue uptake at 1 h was 0.44 ± 0.28 %ID/g.

Question: And the tissue uptake at 1 h ([3]; 1 h p.i., i.v. 10 pmol, mean ± SD, n = 5–6, read-out: Brain uptake)?
Answer: Its tissue uptake at 1 h is 0.09 ± 0.07 %ID/g.

Question: What about the tissue uptake at 1 h ([3]; 1 h p.i., i.v. 10 pmol, mean ± SD, n = 5–6, read-out: Heart uptake) of the same molecule?
Answer: Its tissue uptake at 1 h is 0.5 ± 0.23 %ID/g.

Question: What about the tissue uptake at 1 h ([3]; 1 h p.i., i.v. 10 pmol, mean ± SD, n = 5–6, read-out: Kidney uptake) of the same molecule?
Answer: Its tissue uptake at 1 h is 4.32 ± 0.97 %ID/g.

Question: And the tissue uptake at 1 h ([3]; 1 h p.i., i.v. 10 pmol, mean ± SD, n = 5–6, read-out: Liver uptake)?
Answer: The tissue uptake at 1 h was 2.75 ± 0.74 %ID/g.

Question: What about the tissue uptake at 1 h ([3]; 1 h p.i., i.v. 10 pmol, mean ± SD, n = 5–6, read-out: Lung uptake) of the same molecule?
Answer: Its tissue uptake at 1 h is 1.38 ± 0.83 %ID/g.

Question: And the tissue uptake at 1 h ([3]; 1 h p.i., i.v. 10 pmol, mean ± SD, n = 5–6, read-out: Muscle uptake)?
Answer: The tissue uptake at 1 h was 0.35 ± 0.24 %ID/g.

Question: What about the tissue uptake at 1 h ([3]; 1 h p.i., i.v. 10 pmol, mean ± SD, n = 5–6, read-out: Spleen uptake) of the same molecule?
Answer: The tissue uptake at 1 h was 1.16 ± 0.17 %ID/g.

Question: What about the tissue uptake at 1 h ([3]; Adrenal uptake) of the same molecule?
Answer: The tissue uptake at 1 h was 5.34 ± 1.85 %ID/g.

Question: What about the tissue uptake at 1 h ([3]; Colon uptake) of the same molecule?
Answer: The tissue uptake at 1 h was 5.85 ± 1.29 %ID/g.

Question: What about the tissue uptake at 1 h ([3]; Intestine uptake) of the same molecule?
Answer: The tissue uptake at 1 h was 3.71 ± 1.48 %ID/g.

Question: And the tissue uptake at 1 h ([3]; Pancreas uptake)?
Answer: Its tissue uptake at 1 h is 17.1 ± 3.25 %ID/g.

Question: What about the tissue uptake at 1 h ([3]; Stomach uptake) of the same molecule?
Answer: Its tissue uptake at 1 h is 3.03 ± 0.88 %ID/g.
